± gives the standard deviation of the averaged measurements.
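Further: ATP exposure 15 min at 22 °C before imaging.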

The data set relates to ATP. As to the kind of experiment: switch fluorescence ratio, 500 uM ATP over buffer (Cy3 cluster intensity, sum of 5 cycles each) (fold (ratio)); higher = stronger signal-on switching upon ATP binding; sequences stand for … in TCGTCGGCAGCGTCAGATGTGTATAAGAGACAGTTTTTTTTTTTTTTTTTTTTTTTTT…TC. The note with it: aptamer strand: ATP DNA aptamer (quencher-CACCTGGGGGAGTATTGCGGAGGAAGG + anchor), 100 nM annealed; ATP concentration: 500 uM. The gist of the method: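 Five buffer/ATP imaging cycles were run on Cy3-labelled switching-strand clusters on a modified Illumina MiSeq flow-cell, with NaOH stripping and re-annealing between cycles. In each cycle, clusters annealed to 100 nM quencher-labelled ATP aptamer were imaged in selection buffer, then after 15 min with 500 uM ATP at 22 °C. Per cluster, the fluorescence ratio is summed target-cycle over summed buffer-cycle Cy3 intensity, averaged per switch-domain sequence. Only clusters within 100-1000 RFU were kept.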
As for GTCGGCGTAA, the switch fluorescence ratio was determined as 0.9982 ± 0.0045.

Take TTAGTGACTA: the switch fluorescence ratio was found to be 1.01 ± 0.031. Next, CTGAATTAGT: 1.01 ± 0.019. Next, CCACTATTAG: 1.03 ± 0.021. On to TCAGATTGCA, for which the switch fluorescence ratio was determined as 1.007 ± 0.0025. In the case of AAGTTAGACA it was 1.021 ± 0.0087; in that of GACAATTTCT, 1.02 ± 0.072; in that of ATCCTATTTG, 1.0056 ± 0.0008. Next, AGGGTGGCTA: 1.011 ± 0.0015; CGGTAAGTGG: 0.988 ± 0.024. In the case of AACAGAGTAG it was 0.976 ± 0.028. Consider TTACTCAGCC, for which the switch fluorescence ratio came out at 1.12 ± 0.055. In the case of GTCGCAAGTT it was 1.01 ± 0.018. In the case of CGTTATTCGG, the switch fluorescence ratio was 0.965 ± 0.032. In the case of AATTCGGGGT it was 1.005 ± 0.0024.

On to TGTTTGAGG, for which the switch fluorescence ratio came to 0.9559 ± 0.009. Next, TTTGGTAAGT: 1.022 ± 0.01. In the case of GTTTGGGACG it was 0.9905 ± 0.0082. With ATCTCGTTA, the switch fluorescence ratio was 1.04 ± 0.053. In the case of GGGGGTGATG it was 1 ± 0.035; in that of GGCTGCCAGT, 0.9909 ± 0.0016; in that of CTGTGGGTTA, 0.9595 ± 0.004. Regarding TGTTATAGG, the switch fluorescence ratio came out at 1.001 ± 0.0098.

With GGTAGAGTAC, the switch fluorescence ratio amounted to 1.02 ± 0.046.

With TTTAAAATTA, the switch fluorescence ratio is 0.9978 ± 0.0042. Next, GCAAGACATT: 1.12 ± 0.019.

TTTGGTTTTG: the switch fluorescence ratio is 0.995 ± 0.038. As for GTGAAAGGGT, the switch fluorescence ratio came to 1.02 ± 0.015. In the case of TTGTTTTGTA it was 0.992 ± 0.024; in that of TATGTTTGGG, 0.986 ± 0.034. Next, CAGGTTCACC: 1.03 ± 0.012; GAATCGTAGG: 0.986 ± 0.016; ATCTGGTATG: 0.957 ± 0.037. Next, ATTGGTCAGC: 0.982 ± 0.035; TTGGAGACGG: 1.023 ± 0.0012; GGGTCTGGTA: 1.02 ± 0.038. For AGGGGTAAAG, the switch fluorescence ratio was found to be 0.955 ± 0.021. Next, TGCAATTTTA: 1.03 ± 0.023; ACCGGCACGG: 0.9679 ± 0.0037; CCGGCATCGG: 1.02 ± 0.059. With GGACGAGGTG, the switch fluorescence ratio was 0.9756 ± 0.0049. In the case of AGGTGTTTGT it was 1.01 ± 0.028; in that of CTGTTGGGTC, 0.97927 ± 0.00013; in that of AGTATGGTGT, 0.937 ± 0.044. As for GACTGGAGGA, the switch fluorescence ratio was 0.9851 ± 0.008.

As for AAGCTAGTAA, the switch fluorescence ratio stood at 0.865 ± 0.012. Next, AGGTTGAGGT: 1.08 ± 0.12; AAGGGCTACG: 0.983 ± 0.04. In the case of TTTTTTAGGT it was 0.99 ± 0.03; in that of ATGATCGGAT, 0.977 ± 0.051; in that of TCCTGGGGAT, 0.99 ± 0.039.

For ATGAGGAGGG, the switch fluorescence ratio came to 1.02 ± 0.023.

In the case of GGATTTAGTA, the switch fluorescence ratio was found to be 1.01 ± 0.034. Consider GTGGGGCCTG, for which the switch fluorescence ratio was 0.955 ± 0.013. TCATCGGTTC: the switch fluorescence ratio amounted to 1 ± 0.052. In the case of GAAACTGCTG it was 1.01 ± 0.029; in that of ATAGAATAGA, 0.985 ± 0.02.

CGGTTTATGC: the switch fluorescence ratio turned out to be 1.09 ± 0.052. Take GATGGGTCTG: the switch fluorescence ratio was determined as 0.948 ± 0.014. Next, ATGTGTAGGC: 1.02 ± 0.026; AATTAGGTGC: 1.14 ± 0.077; TACTTTGGGC: 1.03 ± 0.065. ACGATGTTGG: the switch fluorescence ratio was found to be 0.994 ± 0.023. In the case of TCAGGGACAG it was 1.02 ± 0.021; in that of TGGGGCTAAT, 1.02 ± 0.034.

For CGGGTGGGGA, the switch fluorescence ratio turned out to be 1.01 ± 0.04. In the case of GAATGGCACA it was 0.998 ± 0.016.

Source of the values: the supplement of paper PMC10126150.
